Our source for the Ka and koff values is article PMC8463545 (2021).

The target in test [1] is T1, RpfG-MBP (Lysobacter enzymogenes).
T1 chain: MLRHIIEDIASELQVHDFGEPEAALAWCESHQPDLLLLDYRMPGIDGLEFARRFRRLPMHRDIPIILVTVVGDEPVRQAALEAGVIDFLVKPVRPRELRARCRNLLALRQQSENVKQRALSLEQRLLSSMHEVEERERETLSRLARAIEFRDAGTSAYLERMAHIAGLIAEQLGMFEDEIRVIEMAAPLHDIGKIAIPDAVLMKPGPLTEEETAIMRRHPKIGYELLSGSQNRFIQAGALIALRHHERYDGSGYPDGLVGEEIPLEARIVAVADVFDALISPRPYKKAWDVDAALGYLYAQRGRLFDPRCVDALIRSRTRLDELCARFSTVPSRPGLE
Description: SPR.

The target in test [2] is T1, RpfG-MBP. The test is described as follows: SPR. (In general: In SPR one partner is held on a chip, and binding of the other changes the refractive index at the surface.)

B1: HtsH2C-HA-His (domain or fragment)
chain: not shown
modifications: Phosphorylated as purified (CIAP-sensitive). Primers give (M)AKTRFL... to ...DAADAP (C-terminus). The candidate lists no features, so the start is estimated from the paralogues' fragment lengths and may be off by a few residues. Assignment of this entry to HtsH2 is inferred. The entry is probably not from strain OH11.
In the case of B1, the Ka in test [1] is 3.34e+06 M⁻¹. Further, in test [2], the koff stood at 0.00129 s⁻¹.

B2: HtsH1C-Flag-His (domain or fragment)
chain: not shown
modifications: Phosphorylated as purified (CIAP-sensitive). Limits from the expression primers: (M)AKTRFL... to ...LFEREA, just before the His-kinase domain to the C-terminus. The start codon Met and Flag/His tags are left out. Positions are inferred from the candidate's domain features. The entry is probably not from strain OH11.
In test [1], B2 came in with a Ka of 1.5e+07 M⁻¹. Besides, in test [2], the koff amounted to 0.00118 s⁻¹.

B3: HtsH3C-Myc-His (domain or fragment)
chain: not shown
modifications: Phosphorylated as purified (CIAP-sensitive). Primers give (M)AKTRFL... to ...ARRGEG (C-terminus). Positions are inferred from the candidate's His-kinase domain start. Assignment of this entry to HtsH3 is inferred. The entry is probably not from strain OH11.
Molecule B3 showed a Ka in test [1] of 5.96e+06 M⁻¹. In test [2], this molecule showed a koff of 0.000738 s⁻¹.

The term koff denotes a measure of how fast the partners let go of each other. Read a low koff as slow dissociation.
